System: K4 kissing-loop RNA reporter
Assay: apparent KD of K4 kissing-loop reporter; higher = weaker reporter binding
Details: Eterna round: R107
Protocol: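 RNA-MaP round R107: designed RNA switches with theophylline, tryptophan, arginine or FMN aptamers are transcribed on-chip within common flanks. They are titrated with a labelled K4 kissing-loop RNA reporter in RNA-MaP buffer (100 mM Tris pH 7.5, 80 mM KCl, 4 mM MgCl2), without ligand or with the indicated ligand. Median apparent KD per design.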

[1] = input ligand: theophylline 20 uM
[2] = input ligand: tryptophan 2.4 mM
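Note: bound reporter read as fluorescence of individual clusters on recovered sequencing chips by microscopy, with normalized cluster intensities fitted with a binding model.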

Sequence | apparent KD of K4 kissing-loop reporter (input ligand: FMN 200 uM) [nM] | apparent KD of K4 kissing-loop reporter (input ligand: arginine 13.2 mM) [nM] | apparent KD of K4 kissing-loop reporter (input ligand: none) [nM] | apparent KD of K4 kissing-loop reporter [1] [nM] | apparent KD of K4 kissing-loop reporter [2] [nM]
AUUCGUCUCUGAGGAUAUCAGAGGAGAGUGAUGUUCUCCCAUAGCCCAGUGAUGUUGGAUGCUAUCUGAGAAGGCAGUGGGCGAA [Same State FMN B GF 14] | 142 | 203 | 213 | 226 | 186
AUUGCACCUGCGGCCGCCACUCACUCCGGGCUGCUGGCCAGUGAUGUUGGUACGGCUGCCGGUUAGAGGACCGGGCAGGAGCUAA [Esage] | 106 | 113 | 107 | 106 | 91.3
AUUUAUUCGUACUACUAGUGAUGUUAGUAACGAGGACCGGUACGGCCGCCACUCGAUUUGGCGAUUUUGUAUUUUUUAUUCUAUA [JR_SSTryptoA_Sub011] | 324 | 321 | 359 | 328 | 192
AUUUUGGUUUAGAGUGAUGUUCCUUGUAUUCGAGGACCGGUACGGCCGCCACUCGGAUAGAAAAGAAAAGAAAUGUUUGAUUUUU [BDazzled - #8 SS Tryptophan A] | 339 | 219 | 458 | 260 | 298
AUUUUUUUAUCAGGAUAUUAGUGAUGUUUGUUUUUGUUAGUGAUGUUGAUAUUUGUUUUAUGUAUUUAAGAAGGGAUUGAGAUGU [sfsmullin] | 46.4 | 15.5 | 28.2 | 19.9 | 42.4
AUUUUUUUGUCAGGAUAUUAGUAUGGUUUUGGUUUGUUAGUGAUGUUGAUAUUUUGUUUAUGUAUUUAAGAAGGGAUUUAGCGGU [gyhhgumullin] | 404 | 290 | 356 | 447 | 320
CAAAACGAGUGAUGUUCGGACAACAACGUUAAGGAUAUACUUCUCUGUAGAAGGUAACAGUAUUUAUAUUUCAUCAACGAAAAUG [theeternabot_exclusion_KL_FMN_A_12] | 213 | 183 | 280 | 248 | 181
CAAACGGGUUGGCUUGGAGACUGCAGACGCAAGGAUAUCGCGAAGACGAGAAGGUGCGGGCCUGGUAGUGAUGUUACAGUUUGGU [theeternabot_sameState_KL_FMN_A_21] | 358 | 326 | 395 | 367 | 254
CAAAUAUGCGGUAGGUUCAAGCGCUGGGAAGGAGCGCAGAUGACUGCAGGUAGGUCGCCCAGUGAUGUUGGGCUUUCCACCUAUG [Esisusa] | 132 | 109 | 107 | 136 | 100
CACAAUUAAUUACAGUGAUGUUGUAAUCUGCGAGGACCGGUACGGCCGCCACUCGGGCUUGUAGGGCGCCCACAUUCUUAUACUA [theeternabot_sameState_KL_Trp_A_29] | 447 | 348 | 426 | 428 | 360
CACUUACGUAGUGAUGUUACGAUCUCUGAUACCAGACAACUCUAAGUCCCUUGGCAGCAGUCAUUUUGCUUAGUAUUUACUCAAA [JR_ExcTheophyA_Sub016] | 679 | 650 | 791 | 605 | 512
CACUUACGUAGUGAUGUUACGAUCUCUGAUACCAGACAACUCUAAGUCCCUUGGCAGCAGUCAUUUUGCUUCAAAUUUACUCAAA [JR_ExcTheophyA_Sub013] | 691 | 577 | 706 | 661 | 520
CACUUACGUAGUGAUGUUACGAUCUCUGAUACCAGACAACUCUAAGUCCCUUGGCAGCAGUCAUUUUGCUUUUAAUUUACUCAAA [JR_ExcTheophyA_Sub014] | 552 | 572 | 682 | 578 | 425
CAGAACUUGUAUACAGGGCAUGCCAGAGAUACCAGUCAAAUGGAAGGCCCUUGGCAGCUCAGGCGAGUGAUGUUCGCAGGCUGAC [Exclusion Theophylline A GF 19] | 140 | 122 | 116 | 131 | 133
CAGAACUUGUAUACAGGGUAUGUAAGAGAUACCAGUCAAAUUAAAGACCCUUGGCAGCUCAGGCGAGUGAUGUUCGCAGGCUAAC [Exclusion Theophylline A GF 18] | 103 | 118 | 115 | 116 | 99
CAGCAUCUGAGUGGUAGCCAUUGAGAGAUGCAGGAUAUCUGGAAACAGAGAAGGGCAGUGAGUGAUGUUCACGGCUGGCUUGGUU | 154 | 132 | 179 | 133 | 110
CAUAGGAAACUAUGUUCCUCUCUUACUGAAGGAGCGCGUGAAAACGCAGGUAGGUCGCAGGAUUUGAGAGUGAUGUUCUCAUUAA [Ex Arginine A K4 15] | 160 | 260 | 254 | 278 | 171
CAUUACGGUCGCUUACCAAACCACUACUUCCGAGGACCGGUACGGCCGCCACUCGCCAGUGAUGUUGGCUCGGGCGGCCGAUUAU [Orrebeante] | 117 | 103 | 109 | 97.9 | 106
CCAAGGUGCUUCUGUUCAGUGAUGUUGGUACGAGGACCGGUACGGCCGCCACUCGCCGUACAAUCGCUAGUUAAUCAUUGGCAAG [theeternabot_exclusion_KL_Trp_A_40] | 667 | 408 | 660 | 441 | 256
CCACCUCCAGAAGGAUAUAGUGUAUCAGAUUCACUCGAGUGCCUUAAACUAAGGAGUGAUGUUCCGCUAGAAGGUCUCGUAGGCA [theeternabot_exclusion_KL_FMN_B_45] | 191 | 145 | 149 | 138 | 133
CCAUCGCUAUUCGAUACCAGCCAGGAGGUCUUUGGCCUCCUAUUGGAGUGAUGUUCCAUAGGCCCUUGGCAGCGAAUAGUGAUGG [Theophylline B K4 16] | 372 | 187 | 283 | 542 | 374
CCAUCGCUAUUCGAUACCAGUCAGGAGGUCUUUGGCCUCCUAUUGGAGUGAUGUUCCAUAGACCCUUGGCAGCGAAUAGUGAUGG [Theophylline B K4 15] | 822 | 255 | 834 | 613 | 510
